This note sets out measurements from PMC12699821, “STARD4 suppresses tumorigenesis and attenuates enzalutamide resistance via lipid metabolic reprogramming and AR stabilization in prostate cancer” (Journal of Experimental & Clinical Cancer Research : CR, 2025).

For the assay, the target named is T1, GST-tagged AR (human (Gene ID 367 is the human gene), UniProt P10275 1-920).
T1 construct: androgen receptor, Gene ID 367, in vector pGEX-4T-1; also called GST-AR; source: BL21 (Rosetta) bacterial cells, purified (protein purification kit)
T1 sequence (looked up): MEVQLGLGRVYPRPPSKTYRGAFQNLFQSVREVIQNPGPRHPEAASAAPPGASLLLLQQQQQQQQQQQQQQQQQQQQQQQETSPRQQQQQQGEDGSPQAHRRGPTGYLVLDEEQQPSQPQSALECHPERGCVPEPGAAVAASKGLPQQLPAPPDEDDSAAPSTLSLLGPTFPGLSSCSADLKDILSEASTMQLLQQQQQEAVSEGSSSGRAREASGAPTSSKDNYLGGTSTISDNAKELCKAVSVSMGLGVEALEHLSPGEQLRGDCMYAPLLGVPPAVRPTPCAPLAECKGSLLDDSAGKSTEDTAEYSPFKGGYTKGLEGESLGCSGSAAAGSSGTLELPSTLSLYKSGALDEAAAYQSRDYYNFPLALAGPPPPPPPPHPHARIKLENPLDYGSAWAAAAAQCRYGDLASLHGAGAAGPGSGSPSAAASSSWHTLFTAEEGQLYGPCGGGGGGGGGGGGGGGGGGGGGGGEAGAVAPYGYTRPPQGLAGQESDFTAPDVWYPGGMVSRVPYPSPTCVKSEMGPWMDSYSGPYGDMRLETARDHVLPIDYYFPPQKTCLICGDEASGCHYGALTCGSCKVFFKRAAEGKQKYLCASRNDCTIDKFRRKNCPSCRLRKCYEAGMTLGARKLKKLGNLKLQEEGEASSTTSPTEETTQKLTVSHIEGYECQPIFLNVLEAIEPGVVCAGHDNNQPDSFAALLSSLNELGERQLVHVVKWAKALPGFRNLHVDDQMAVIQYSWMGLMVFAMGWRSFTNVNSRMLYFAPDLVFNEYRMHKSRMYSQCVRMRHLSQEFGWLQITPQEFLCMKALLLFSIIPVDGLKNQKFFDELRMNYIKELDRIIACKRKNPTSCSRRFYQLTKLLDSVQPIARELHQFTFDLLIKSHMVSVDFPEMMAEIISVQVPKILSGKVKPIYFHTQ
The assay is described as follows: pull-down; purified GST-tagged protein immobilised on glutathione-Sepharose beads, incubated with His-tagged protein in PMSF-supplemented affinity isolation buffer, western blotting. To be noted: both partners purified.

B1: His-tagged STARD4 (natural protein, human (Gene ID 134429 is the human gene), UniProt Q96DR4 1-205, looked up)
chain: MEGLSDVASFATKLKNTLIQYHSIEEDKWRVAKKTKDVTVWRKPSEEFNGYLYKAQGVIDDLVYSIIDHIRPGPCRLDWDSLMTSLDILENFEENCCVMRYTTAGQLWNIISPREFVDFSYTVGYKEGLLSCGISLDWDEKRPEFVRGYNHPCGWFCVPLKDNPNQSLLTGYIQTDLRGMIPQSAVDTAMASTLTNFYGDLRKAL
notes: STARD4, Gene ID 134429, vector printed as pGMLV; also called His-STARD4; source: BL21 (Rosetta) bacterial cells, purified (protein purification kit)
As to B1, the binding result was “binds”.
